Experiment: Catalytic activity of recombinant human CAT versus bovine CAT
Assay type: biochemical
Conditions: data normalized to per mg
From the text: In certain embodiments, the nanoparticles are formulated with antioxidant enzymes. For example, the following may be employed for generating SOD and catalase nanoparticles. […] In certain embodiments, SOD is an enzyme that catalyzes the conversion of superoxide to H2O2 and catalase is an enzyme that further degrades H2O2 to molecular oxygen and water. The SOD and catalase for use in the methods and compositions of the invention can be obtained from a variety of sources. In a particular embodiment, the SOD and/or catalase are mammalian SOD and/or mammalian catalase, and/or recombinant catalase. As used herein “mammal” and/or “mammalian” refer to a primate, canine, feline, rodent, and the like. Specific examples of mammalian SOD and/or catalase include human, pig, dog, cat, horse, cow, sheep, goat, rabbit, guinea pig, rats and mice SOD and/or catalase.

B1: Human CAT: Recombinant human catalase obtained from BioVision or Creative BioMart (protein, UniProt P04040 2-527, looked up)
Catalase: ADSRDPASDQMQHWKEQRAAQKADVLTTGAGNPVGDKLNVITVGPRGPLLVQDVVFTDEMAHFDRERIPERVVHAKGAGAFGYFEVTHDITKYSKAKVFEHIGKKTPIAVRFSTVAGESGSADTVRDPRGFAVKFYTEDGNWDLVGNNTPIFFIRDPILFPSFIHSQKRNPQTHLKDPDMVWDFWSLRPESLHQVSFLFSDRGIPDGHRHMNGYGSHTFKLVNANGEAVYCKFHYKTDQGIKNLSVEDAARLSQEDPDYGIRDLFNAIATGKYPSWTFYIQVMTFNQAETFPFNPFDLTKVWPHKDYPLIPVGKLVLNRNPVNYFAEVEQIAFDPSNMPPGIEASPDKMLQGRLFAYPDTHRHRLGPNYLHIPVNCPYRARVANYQRDGPMCMQDNQGGAPNYYPNSFGAPEQQPSALEHSIQYSGEVRRFNTANDDNVTQVRAFYVNVLNEEQRKRLCENIAGHLKDAQIFIQKKAVKNFTEVHPDYGSHIQALLDKYNAEKPKNAIHTFVQSGSHLAAREKANL
  catalytic potency relative to bovine CAT: 5.7 fold
